Tests used:
Assay in all cases: cell-based or functional assay
[1] = molecular target: HIV-1 Ba-L (R5) env (gp120 and gp41) (HIV-1 strain Ba-L)
[2] = molecular target: HIV-1 IIIB (X4) env (gp120 and gp41) (HIV-1 strain IIIB)
[3] = molecular target: HIV-1 NL4-3 (CXCR4-tropic) env (gp120 and gp41) (HIV-1 strain NL4-3)
[4] = molecular target: HIV-1 92HT599 (CXCR4-tropic) env (gp120 and gp41) (HIV-1 strain 92HT599)
[5] = molecular target: HIV-1 JRFL (R5) env (gp120 and gp41) (HIV-1 strain JRFL)
[6] = molecular target: HIV-1 91US005 (R5) env (gp120 and gp41) (HIV-1 strain 91US005)
[7] = molecular target: HIV-1 ADA (R5) env (gp120 and gp41) (HIV-1 strain ADA)
[8] = molecular target: HIV-1 HXB2 env (X4) (gp120 and gp41) (HIV-1 strain HXB2) (UniProt P04578)

Griffithsin, sequence (P84801 whole entry X31A): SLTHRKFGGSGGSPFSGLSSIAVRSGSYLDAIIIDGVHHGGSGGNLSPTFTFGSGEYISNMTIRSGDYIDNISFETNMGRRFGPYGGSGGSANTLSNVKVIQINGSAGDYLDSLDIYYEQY

Griffithsin (from UniProt P84801 1-121)
Inhibition of HIV virus, Ba-L (R5) in MAGI cells, IC50 [1]: 0.04 nM | Inhibition of HIV virus, Ba-L (R5) in MAGI cells, IC90 [1]: 0.515 nM | Inhibition of HIV virus, Ba-L (R5) in PBMC, IC50 [1]: 0.28 nM | Inhibition of HIV virus, Ba-L (R5) in PBMC, IC90 [1]: 0.76 nM | Inhibition of HIV virus, IIIB (X4) in MAGI cells, IC50 [2]: 0.145 nM | Inhibition of HIV virus, IIIB (X4) in MAGI cells, IC90 [2]: 0.89 nM | Inhibition of HIV-1 Replication in PBMCs, NL4-3 (CXCR4-tropic), IC50 [3]: 0.17 nM | Inhibition of HIV-1 Replication in PBMCs, NL4-3 (CXCR4-tropic), IC90 [3]: 0.725 nM | Inhibition of HIV-1 Replication in PBMCs, 92HT599 (CXCR4-tropic), IC50 [4]: 0.74 nM | Inhibition of HIV-1 Replication in PBMCs, 92HT599 (CXCR4-tropic), IC90 [4]: 1.86 nM | Inhibition of HIV single round pseudovirus in TZM-bl cells, JRFL (R5), IC50 [5]: 0.035 nM | Inhibition of HIV single round pseudovirus in TZM-bl cells, JRFL (R5), IC90 [5]: 1.25 nM | Inhibition of HIV virus, 91US005 (R5) in PBMC, IC50 [6]: 0.16 nM | Inhibition of HIV virus, 91US005 (R5) in PBMC, IC90 [6]: 0.51 nM | Inhibition of HIV-1 Replication in PBMCs, 91US005 (CCR5-tropic), IC50 [6]: 0.28 nM | Inhibition of HIV-1 Replication in PBMCs, 91US005 (CCR5-tropic), IC90 [6]: 0.76 nM | Inhibition of HIV single round pseudovirus in TZM-bl cells, ADA (R5), IC50 [7]: 0.008 nM | Inhibition of HIV single round pseudovirus in TZM-bl cells, ADA (R5), IC90 [7]: 0.164 nM | Inhibition of HIV virus, ADA (R5) in MAGI cells, IC50 [7]: 0.03 nM | Inhibition of HIV virus, ADA (R5) in MAGI cells, IC90 [7]: 0.45 nM | R5 fusion assay IC50 [7]: 1.3 nM | R5 fusion with competition IC50 [7]: 1.73 nM | R5 fusion with wash-out on ADA cells IC50 [7]: 4.28 nM | R5 fusion with wash-out on P5L cells IC50 [7]: 7.34 nM | X4 fusion assay IC50 [8]: 0.468 nM

— patent US20110263485A1, “Bifunctional Griffithsin Analogs” (priority 2009, published 2011)
